{
  "source": "paper PMC5779224",
  "about": "(2017)",
  "parents": {"B1": {"name": "AnkB_AI-b (aa 865–896) [human] / AnkB 28–847 (MBD + partial AI-c) [human] (parent complex)", "chain 1": "EDLKELGDDSLPSSQFLDGMNYLRYSLEGGRS", "chain 2": "KSDSNASFLRAARAGNLDKVVEYLKGGIDINTCNQNGLNALHLAAKEGHVGLVQELLGRGSSVDSATKKGNTALHIASLAGQAEVVKVLVKEGANINAQSQNGFTPLYMAAQENHIDVVKYLLENGANQSTATEDGFTPLAVALQQGHNQAVAILLENDTKGKVRLPALHIAARKDDTKSAALLLQNDHNADVQSKMMVNRTTESGFTPLHIAAHYGNVNVATLLLNRGAAVDFTARNGITPLHVASKRGNTNMVKLLLDRGGQIDAKTRDGLTPLHCAARSGHDQVVELLLERGAPLLARTKNGLSPLHMAAQGDHVECVKHLLQHKAPVDDVTLDYLTALHVAAHCGHYRVTKLLLDKRANPNARALNGFTPLHIACKKNRIKVMELLVKYGASIQAITESGLTPIHVAAFMGHLNIVLLLLQNGASPDVTNIRGETALHMAARAGQVEVVRCLLRNGALVDARAREEQTPLHIASRLGKTEIVQLLLQHMAHPDAATTNGYTPLHISAREGQVDVASVLLEAGAAHSLATKKGFTPLHVAAKYGSLDVAKLLLQRRAAADSAGKNGLTPLHVAAHYDNQKVALLLLEKGASPHATAKNGYTPLHIAAKKNQMQIASTLLNYGAETNIVTKQGVTPLHLASQEGHTDMVTLLLDKGANIHMSTKSGLTSLHLAAQEDKVNVADILTKHGADQDAHTKLGYTPLIVACHYGNVKMVNFLLKQGANVNAKTKNGYTPLHQAAQQGHTHIINVLLQHGAKPNATTANGNTALAIAKRLGYISVVDTLKVVTEEVTTTTTTITEKHKLNVPETMTEVLDVSD"}, "B2": {"name": "AnkB_AI-a peptide (aa 1623–1635) [human] / AnkB_MBD (AnkB ANK repeats only, aa 28–827) [human] (parent complex)", "chain 1": "HPPIVSEEDISVG", "chain 2": "KSDSNASFLRAARAGNLDKVVEYLKGGIDINTCNQNGLNALHLAAKEGHVGLVQELLGRGSSVDSATKKGNTALHIASLAGQAEVVKVLVKEGANINAQSQNGFTPLYMAAQENHIDVVKYLLENGANQSTATEDGFTPLAVALQQGHNQAVAILLENDTKGKVRLPALHIAARKDDTKSAALLLQNDHNADVQSKMMVNRTTESGFTPLHIAAHYGNVNVATLLLNRGAAVDFTARNGITPLHVASKRGNTNMVKLLLDRGGQIDAKTRDGLTPLHCAARSGHDQVVELLLERGAPLLARTKNGLSPLHMAAQGDHVECVKHLLQHKAPVDDVTLDYLTALHVAAHCGHYRVTKLLLDKRANPNARALNGFTPLHIACKKNRIKVMELLVKYGASIQAITESGLTPIHVAAFMGHLNIVLLLLQNGASPDVTNIRGETALHMAARAGQVEVVRCLLRNGALVDARAREEQTPLHIASRLGKTEIVQLLLQHMAHPDAATTNGYTPLHISAREGQVDVASVLLEAGAAHSLATKKGFTPLHVAAKYGSLDVAKLLLQRRAAADSAGKNGLTPLHVAAHYDNQKVALLLLEKGASPHATAKNGYTPLHIAAKKNQMQIASTLLNYGAETNIVTKQGVTPLHLASQEGHTDMVTLLLDKGANIHMSTKSGLTSLHLAAQEDKVNVADILTKHGADQDAHTKLGYTPLIVACHYGNVKMVNFLLKQGANVNAKTKNGYTPLHQAAQQGHTHIINVLLQHGAKPNATTANGNTALAIAKRLGYISVVDTLKVVTEEVTTTTTTI"}, "B3": {"name": "AnkB_AI-c (aa 828–852) [human] / AnkB_MBD (AnkB ANK repeats only, aa 28–827) [human] (parent complex)", "chain 1": "TEKHKLNVPETMTEVLDVSDEEGDD", "chain 2": "B2 chain 2"}, "B4": {"name": "AnkG linker ΔAI-c (aa 861–920) [rat] / AnkG 38–855 (AnkG MBD-AI-c protein; MBD + partial AI-c) [rat] (parent complex)", "chain 1": "KASAPEKLSDGEYISDGEEGEDAITGDTDKYLGPQDLKELGDDSLPAEGYVGFSLGARSA", "chain 2": "KSDANASYLRAARAGHLEKALDYIKNGVDVNICNQNGLNALHLASKEGHVEVVSELLQREANVDAATKKGNTALHIASLAGQAEVVKVLVTNGANVNAQSQNGFTPLYMAAQENHLEVVRFLLDNGASQSLATEDGFTPLAVALQQGHDQVVSLLLENDTKGKVRLPALHIAARKDDTKAAALLLQNDTNADIESKMVVNRATESGFTPLHIAAHYGNINVATLLLNRAAAVDFTARNDITPLHVASKRGNANMVKLLLDRGAKIDAKTRDGLTPLHCGARSGHEQVVEMLLDRAAPILSKTKNGLSPLHMATQGDHLNCVQLLLQHNVPVDDVTNDYLTALHVAAHCGHYKVAKVLLDKKANPNAKALNGFTPLHIACKKNRIRVMELLLKHGASIQAVTESGLTPIHVAAFMGHVNIVSQLMHHGASPNTTNVRGETALHMAARSGQAEVVRYLVQDGAQVEAKAKDDQTPLHISARLGKADIVQQLLQQGASPNAATTSGYTPLHLSAREGHEDVAAFLLDHGASLSITTKKGFTPLHVAAKYGKLEVASLLLQKSASPDAAGKSGLTPLHVAAHYDNQKVALLLLDQGASPHAAAKNGYTPLHIAAKKNQMDIATSLLEYGADANAVTRQGIASVHLAAQEGHVDMVSLLLSRNANVNLSNKSGLTPLHLAAQEDRVNVAEVLVNQGAHVDAQTKMGYTPLHVGCHYGNIKIVNFLLQHSAKVNAKTKNGYTPLHQAAQQGHTHIINVLLQNNASPNELTVNGNTALAIARRLGYISVVDTLKVVTEEIMTTTTITEKHKMNVPETMNEVLDMS"}},
  "data": [
    {"variants_of": "B1", "assay": "ITC; parent: 2.7e+03 nM", "units": {"Kd": "µM"}, "values": [
      {"variant": "chain 1 EDLKELGDDSLPSSQFLDGMNALRYSLEGGRS", "Kd": 16}
    ]},
    {"variants_of": "B1", "assay": "ITC; parent: 2.7e+03 nM", "remark": "another data set of the same source", "units": {"Kd": "µM"}, "values": [
      {"variant": "chain 2 I240Q, chain 2 L273Q", "Kd": 8.5}
    ]},
    {"variants_of": "B2", "assay": "fluorescence polarisation; parent: 7.3e+03 nM", "units": {"Kd": "µM"}, "values": [
      {"variant": "chain 2 R10E, chain 2 R13E", "Kd": 43.8}
    ]},
    {"variants_of": "B3", "assay": "ITC; parent: 360 nM", "units": {"Kd": "µM"}, "values": [
      {"variant": "chain 1 TEKHKLNVPETMTEVQDVSDEEGDD", "Kd": 3.9},
      {"variant": "chain 1 TEKHKLKVPETMTEVLDVSDEEGDD", "Kd": 2.7},
      {"variant": "chain 1 TEKHKLNVPETQTEVLDVSDEEGDD", "Kd": 4.4}
    ]},
    {"variants_of": "B3", "assay": "ITC; parent: 360 nM", "remark": "another data set of the same source", "units": {"Kd": "µM"}, "values": [
      {"variant": "chain 2 N568A", "Kd": 2.4}
    ]},
    {"variants_of": "B4", "assay": "ITC; parent: 1.6e+03 nM", "units": {"Kd": "µM"}, "values": [
      {"variant": "chain 2 I240Q, chain 2 L273Q", "Kd": 3.9},
      {"variant": "chain 2 F104Q, chain 2 F137Q", "Kd": 2.6}
    ]}
  ]
}
